Experimental data from patent publication US20220033493A1.

Legend:
[1] = biological target: CaVβ2b with N-terminal deca-histidine tag (purified from E. coli); experiment: isothermal titration calorimetry, purified proteins, 25 °C
[2] = biological target: CaVβ2b with N-terminal deca-histidine tag (purified from E. coli); experiment: isothermal titration calorimetry, purified proteins, 25 °C, nb.F3 injected into CaVβ2b
[3] = biological target: CaVβ2b with N-terminal deca-histidine tag (purified from E. coli); experiment: isothermal titration calorimetry, nb.F3 injected into CaVβ2b, T=298K

B1: nb.F3 with N-terminal deca-histidine tag (purified from E. coli) (VHH)
VHH: QVQLQESGGGLVQAGGSLRLSCVASGRTFSSYAMGWFRQAPGKEREFVAAIDWSGGTASHADSVKGRFTISRDNAKNTVYLQMNSLKPEDTAVYYCAASSYWSRSVDEYDYWGQGTQVTVSS
stoichiometry [1]: 1 | Kd [2]: 13.2 nM | Ka [3]: 1.07e+08 M⁻¹ | N (stoichiometry) [3]: 0.93 | ΔH [3]: -14.9 kcal/mol | ΔS (cal mol-1 K-1) [3]: -13.8
